Data from US20240052042A1 (Novartis, published 2024).

Assays:
[1] = biological target: T1, human NPR3 in the presence of ANP (human, UniProt P17342 27-481; P01160 124-151, limits assumed); assay: ELISA, IgG titrated on coated antigen with ANP (250 fold molar excess), fluorescence [Cont.]
T1 construct: also called hNPR3 + 100 nM ANP
T1 sequence (looked up): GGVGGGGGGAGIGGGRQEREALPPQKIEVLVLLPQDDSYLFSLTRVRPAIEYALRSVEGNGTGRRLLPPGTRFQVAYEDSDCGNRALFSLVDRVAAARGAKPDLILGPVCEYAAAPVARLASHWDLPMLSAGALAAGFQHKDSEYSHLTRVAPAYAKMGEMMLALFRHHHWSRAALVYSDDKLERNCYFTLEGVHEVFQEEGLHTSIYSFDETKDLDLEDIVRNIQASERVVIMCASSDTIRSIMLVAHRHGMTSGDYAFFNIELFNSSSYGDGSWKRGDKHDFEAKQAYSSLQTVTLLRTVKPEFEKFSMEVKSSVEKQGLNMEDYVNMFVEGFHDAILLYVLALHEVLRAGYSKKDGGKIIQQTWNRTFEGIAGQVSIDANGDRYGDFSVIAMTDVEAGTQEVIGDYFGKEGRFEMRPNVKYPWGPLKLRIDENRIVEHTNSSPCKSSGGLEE
T1 sequence (peptide, looked up): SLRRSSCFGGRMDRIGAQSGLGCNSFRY

[2] = biological target: T2, human Natriuretic Peptide Receptor 1 (hNPR1) (human, UniProt P16066 33-473, limits assumed); assay: ELISA, IgG
T2 construct: pannings used NPR1-hFc; also called NPR1-hFc
T2 sequence: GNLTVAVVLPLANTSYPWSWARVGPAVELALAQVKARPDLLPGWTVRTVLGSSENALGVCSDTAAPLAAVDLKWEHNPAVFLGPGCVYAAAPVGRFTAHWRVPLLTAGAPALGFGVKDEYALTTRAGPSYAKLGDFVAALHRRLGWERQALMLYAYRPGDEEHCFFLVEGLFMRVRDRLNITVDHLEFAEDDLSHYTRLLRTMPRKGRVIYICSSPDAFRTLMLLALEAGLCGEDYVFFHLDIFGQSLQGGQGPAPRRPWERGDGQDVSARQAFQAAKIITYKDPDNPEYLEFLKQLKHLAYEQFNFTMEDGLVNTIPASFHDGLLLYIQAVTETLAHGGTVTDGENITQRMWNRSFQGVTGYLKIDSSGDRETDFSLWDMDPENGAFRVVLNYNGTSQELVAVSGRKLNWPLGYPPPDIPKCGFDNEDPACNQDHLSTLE

[3] = biological target: T3, hNPR1-ANP complex (human, UniProt P01160 124-151, limits assumed); assay: ELISA, IgG
T3 construct: hNPR1 antigen in the presence of ANP; also called hNPR1 + 100 nM ANP
T3 sequence: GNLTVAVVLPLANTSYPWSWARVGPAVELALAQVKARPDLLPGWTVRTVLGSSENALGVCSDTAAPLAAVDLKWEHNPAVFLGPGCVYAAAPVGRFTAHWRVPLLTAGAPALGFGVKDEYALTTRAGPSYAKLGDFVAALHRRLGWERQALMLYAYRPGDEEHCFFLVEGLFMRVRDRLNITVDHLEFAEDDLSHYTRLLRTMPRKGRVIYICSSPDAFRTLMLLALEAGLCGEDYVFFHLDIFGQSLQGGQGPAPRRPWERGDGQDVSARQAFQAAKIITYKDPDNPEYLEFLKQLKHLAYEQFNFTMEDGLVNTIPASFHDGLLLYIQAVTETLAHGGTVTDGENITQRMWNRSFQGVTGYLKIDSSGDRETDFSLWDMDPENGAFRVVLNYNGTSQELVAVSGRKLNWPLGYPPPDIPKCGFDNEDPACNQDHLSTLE
T3 sequence (peptide): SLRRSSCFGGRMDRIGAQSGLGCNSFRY

[4] = biological target: T4, human NPR1 on CHO-K1 cells in the presence of ANP (human, UniProt P01160 124-151); assay: flow cytometry, hNPR1 CHO-K1 cells, IgG
T4 construct: also called hNPR1 CHO K1 + 100 nM ANP
T4 sequence: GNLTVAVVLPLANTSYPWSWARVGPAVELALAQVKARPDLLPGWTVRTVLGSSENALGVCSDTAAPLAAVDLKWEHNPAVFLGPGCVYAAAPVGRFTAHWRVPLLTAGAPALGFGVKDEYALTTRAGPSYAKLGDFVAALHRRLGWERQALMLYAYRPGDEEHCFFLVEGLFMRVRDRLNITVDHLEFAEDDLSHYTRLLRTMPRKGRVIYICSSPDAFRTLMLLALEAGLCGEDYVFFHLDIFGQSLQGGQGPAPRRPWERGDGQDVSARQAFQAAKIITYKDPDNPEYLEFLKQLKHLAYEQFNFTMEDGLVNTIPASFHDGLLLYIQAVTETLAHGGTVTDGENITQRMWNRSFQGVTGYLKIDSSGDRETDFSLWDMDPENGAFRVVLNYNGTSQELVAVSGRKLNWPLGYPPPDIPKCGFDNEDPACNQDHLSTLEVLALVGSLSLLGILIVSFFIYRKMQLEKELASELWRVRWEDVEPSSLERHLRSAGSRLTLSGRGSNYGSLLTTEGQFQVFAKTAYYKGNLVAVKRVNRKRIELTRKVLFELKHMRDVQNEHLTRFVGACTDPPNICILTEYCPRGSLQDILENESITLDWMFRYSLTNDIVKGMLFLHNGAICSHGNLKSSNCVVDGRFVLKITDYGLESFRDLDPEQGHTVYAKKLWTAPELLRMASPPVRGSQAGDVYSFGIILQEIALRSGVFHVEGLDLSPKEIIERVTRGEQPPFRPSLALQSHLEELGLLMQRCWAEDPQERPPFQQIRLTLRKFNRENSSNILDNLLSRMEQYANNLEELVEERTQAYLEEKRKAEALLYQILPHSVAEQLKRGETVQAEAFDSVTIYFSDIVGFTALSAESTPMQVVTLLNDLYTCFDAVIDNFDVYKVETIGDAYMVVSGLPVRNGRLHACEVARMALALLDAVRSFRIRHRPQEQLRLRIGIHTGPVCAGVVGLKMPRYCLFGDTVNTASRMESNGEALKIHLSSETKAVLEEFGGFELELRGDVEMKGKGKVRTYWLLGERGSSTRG
T4 sequence (peptide): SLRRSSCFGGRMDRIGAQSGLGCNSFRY

[5] = biological target: T5, human NPR3 (counter target) (human, UniProt P17342 27-481, limits assumed); assay: ELISA, IgG titrated on coated antigen, fluorescence [Cont.]
T5 construct: Pannings used hNPR3-hFc; also called hNPR3; hNPR3-hFc
T5 sequence (looked up): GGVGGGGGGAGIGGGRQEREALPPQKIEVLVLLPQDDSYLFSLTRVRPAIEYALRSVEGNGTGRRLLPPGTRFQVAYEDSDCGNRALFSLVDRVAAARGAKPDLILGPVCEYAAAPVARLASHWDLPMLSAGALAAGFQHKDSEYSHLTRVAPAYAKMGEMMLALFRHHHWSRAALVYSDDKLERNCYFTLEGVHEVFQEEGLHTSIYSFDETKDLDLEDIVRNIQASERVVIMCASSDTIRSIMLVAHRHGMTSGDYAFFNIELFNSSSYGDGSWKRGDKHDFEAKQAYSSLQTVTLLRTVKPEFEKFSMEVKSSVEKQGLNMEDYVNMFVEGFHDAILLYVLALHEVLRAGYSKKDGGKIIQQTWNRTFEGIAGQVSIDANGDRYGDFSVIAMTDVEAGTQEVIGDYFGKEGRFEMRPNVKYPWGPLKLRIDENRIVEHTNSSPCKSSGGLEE

- binding result [1]: no binding (tested: 1000 nM)
- EC50 [2]: 42.7 nM
- EC50 [3]: 1.4 nM
- flow cytometry S/BG at 2 µM IgG [4]: 214 S/BG
- binding result [5]: no binding (tested: 1000 nM)
B1: WW03 (IgG format) (antibody, V domains shown)
VH: QVQLLESGGGLVQPGGSLRLSCAASGFTFSSYWMNWVRQAPGKGLEWVSAISSDGSYTYYADSVKGRFTISRDNSKNTLYLQMNSLRAEDTAVYYCARDRYSMIYSYGAGAFDYWGQGTLVTVSS
VL: DIQMTQSPSSLSASVGDRVTITCRASQGISSYLAWYQQKPGKAPKLLIYTASTLQSGVPSRFSGSGSGTDFTLTISSLQPEDFATYYCMQSYEKPRTFGQGTKVEIKR
notes: also called WW03_LALA
